B1: CBL peptide 540-555 (E3 ubiquitin-protein ligase CBL), 16-mer library wild type / YES SH3 (YES1 SH3 domain, residues 90-152) (parent complex)
chain 1: RDLPPPPPPDRPYSVG
chain 2: not shown

The text below walks through data of paper PMC12102759 (2025).

The experiment covers variants of B1. In words: proteomic peptide phage display deep mutational scan (ProP-PD DMS): M13 P8 16-mer library selected against immobilised GST-tagged bait for four days (rounds), NGS of the eluted pools per day and pseudo-replica; bait immobilised on MaxiSorp plates (10 µg), library pre-cleared on GST, 2 h binding at 4 °C, five washes; one round per day, days 1-4; value from days 2 and 3.
On to chain 1 S14G, for which the screen value is 0.00254 average fractional NGS count over selection days 2 and 3 (reads of this peptide / all reads for the bait, averaged over ….

Turning to chain 1 S14I, the screen value is 0.00339 average fractional NGS count over selection days 2 and 3 (reads of this peptide / all reads for the bait, averaged over ….

As for chain 1 S14Q, the screen value was 0.000166 average fractional NGS count over selection days 2 and 3 (reads of this peptide / all reads for the bait, averaged over ….

Turning to chain 1 S14T, the screen value is 0.0152 average fractional NGS count over selection days 2 and 3 (reads of this peptide / all reads for the bait, averaged over ….

As for chain 1 S14P, the screen value was 0.00266 average fractional NGS count over selection days 2 and 3 (reads of this peptide / all reads for the bait, averaged over ….

For chain 1 S14L, the screen value is 0.0182 average fractional NGS count over selection days 2 and 3 (reads of this peptide / all reads for the bait, averaged over ….

As for chain 1 S14H, the screen value is 0.000385 average fractional NGS count over selection days 2 and 3 (reads of this peptide / all reads for the bait, averaged over ….

Regarding chain 1 L3S, the screen value was 6.99e-05 average fractional NGS count over selection days 2 and 3 (reads of this peptide / all reads for the bait, averaged over ….

Take chain 1 L3E: the screen value is 5.03e-05 average fractional NGS count over selection days 2 and 3 (reads of this peptide / all reads for the bait, averaged over ….

In the case of chain 1 L3N, the screen value is 7.55e-05 average fractional NGS count over selection days 2 and 3 (reads of this peptide / all reads for the bait, averaged over ….

For the variant chain 1 L3M, the screen value was 0.00032 average fractional NGS count over selection days 2 and 3 (reads of this peptide / all reads for the bait, averaged over ….

Regarding chain 1 L3F, the screen value is 9.32e-05 average fractional NGS count over selection days 2 and 3 (reads of this peptide / all reads for the bait, averaged over ….

In the case of chain 1 L3I, the screen value is 0.00353 average fractional NGS count over selection days 2 and 3 (reads of this peptide / all reads for the bait, averaged over ….

Regarding chain 1 L3W, the screen value was 0.000182 average fractional NGS count over selection days 2 and 3 (reads of this peptide / all reads for the bait, averaged over ….

With chain 1 L3K, the screen value is 0.000147 average fractional NGS count over selection days 2 and 3 (reads of this peptide / all reads for the bait, averaged over ….

Consider chain 1 P7K, for which the screen value is 0.000178 average fractional NGS count over selection days 2 and 3 (reads of this peptide / all reads for the bait, averaged over ….

chain 1 P7L: the screen value is 0.00235 average fractional NGS count over selection days 2 and 3 (reads of this peptide / all reads for the bait, averaged over ….

For the variant chain 1 P7N, the screen value was 0.000153 average fractional NGS count over selection days 2 and 3 (reads of this peptide / all reads for the bait, averaged over ….

As to chain 1 P7G, the screen value was 9.71e-05 average fractional NGS count over selection days 2 and 3 (reads of this peptide / all reads for the bait, averaged over ….

Turning to chain 1 P7Y, the screen value is 0.000167 average fractional NGS count over selection days 2 and 3 (reads of this peptide / all reads for the bait, averaged over ….

For chain 1 P7A, the screen value is 0.000371 average fractional NGS count over selection days 2 and 3 (reads of this peptide / all reads for the bait, averaged over ….

Regarding chain 1 P7M, the screen value is 0.00246 average fractional NGS count over selection days 2 and 3 (reads of this peptide / all reads for the bait, averaged over ….

As to chain 1 P7E, the screen value was 0.000775 average fractional NGS count over selection days 2 and 3 (reads of this peptide / all reads for the bait, averaged over ….

For chain 1 P7W, the screen value is 0.000156 average fractional NGS count over selection days 2 and 3 (reads of this peptide / all reads for the bait, averaged over ….

In the case of chain 1 P7H, the screen value was 0.00103 average fractional NGS count over selection days 2 and 3 (reads of this peptide / all reads for the bait, averaged over ….

Turning to chain 1 P7I, the screen value was 0.000596 average fractional NGS count over selection days 2 and 3 (reads of this peptide / all reads for the bait, averaged over ….

Turning to chain 1 P7Q, the screen value was 0.000262 average fractional NGS count over selection days 2 and 3 (reads of this peptide / all reads for the bait, averaged over ….

Regarding chain 1 P9L, the screen value was 0.00194 average fractional NGS count over selection days 2 and 3 (reads of this peptide / all reads for the bait, averaged over ….

With chain 1 P9D, the screen value was 0.00109 average fractional NGS count over selection days 2 and 3 (reads of this peptide / all reads for the bait, averaged over ….

As to chain 1 P9E, the screen value is 0.000429 average fractional NGS count over selection days 2 and 3 (reads of this peptide / all reads for the bait, averaged over ….

Turning to chain 1 P9Q, the screen value was 0.00144 average fractional NGS count over selection days 2 and 3 (reads of this peptide / all reads for the bait, averaged over ….

Consider chain 1 P9V, for which the screen value is 0.00298 average fractional NGS count over selection days 2 and 3 (reads of this peptide / all reads for the bait, averaged over ….

Regarding chain 1 P9G, the screen value was 0.00146 average fractional NGS count over selection days 2 and 3 (reads of this peptide / all reads for the bait, averaged over ….

Turning to chain 1 P9R, the screen value was 0.000295 average fractional NGS count over selection days 2 and 3 (reads of this peptide / all reads for the bait, averaged over ….

Consider chain 1 P9K, for which the screen value is 0.00297 average fractional NGS count over selection days 2 and 3 (reads of this peptide / all reads for the bait, averaged over ….

Consider chain 1 P9A, for which the screen value is 0.00224 average fractional NGS count over selection days 2 and 3 (reads of this peptide / all reads for the bait, averaged over ….

With chain 1 P9W, the screen value was 0.00602 average fractional NGS count over selection days 2 and 3 (reads of this peptide / all reads for the bait, averaged over ….

As to chain 1 P8N, the screen value is 0.00013 average fractional NGS count over selection days 2 and 3 (reads of this peptide / all reads for the bait, averaged over ….

Consider chain 1 P8K, for which the screen value was 0.000519 average fractional NGS count over selection days 2 and 3 (reads of this peptide / all reads for the bait, averaged over ….

As to chain 1 P8E, the screen value is 0.00198 average fractional NGS count over selection days 2 and 3 (reads of this peptide / all reads for the bait, averaged over ….

On to chain 1 P8A, for which the screen value is 0.00106 average fractional NGS count over selection days 2 and 3 (reads of this peptide / all reads for the bait, averaged over ….

Regarding chain 1 P8I, the screen value is 0.000285 average fractional NGS count over selection days 2 and 3 (reads of this peptide / all reads for the bait, averaged over ….

chain 1 P8L: the screen value is 0.000348 average fractional NGS count over selection days 2 and 3 (reads of this peptide / all reads for the bait, averaged over ….

With chain 1 P8S, the screen value was 0.00243 average fractional NGS count over selection days 2 and 3 (reads of this peptide / all reads for the bait, averaged over ….

In the case of chain 1 P8D, the screen value was 0.000795 average fractional NGS count over selection days 2 and 3 (reads of this peptide / all reads for the bait, averaged over ….

chain 1 P8F: the screen value is 0.00526 average fractional NGS count over selection days 2 and 3 (reads of this peptide / all reads for the bait, averaged over ….

As to chain 1 P8G, the screen value is 0.000141 average fractional NGS count over selection days 2 and 3 (reads of this peptide / all reads for the bait, averaged over ….

For the variant chain 1 P8W, the screen value was 0.00267 average fractional NGS count over selection days 2 and 3 (reads of this peptide / all reads for the bait, averaged over ….

As to chain 1 R1N, the screen value is 0.00136 average fractional NGS count over selection days 2 and 3 (reads of this peptide / all reads for the bait, averaged over ….

Consider chain 1 R1P, for which the screen value was 0.000732 average fractional NGS count over selection days 2 and 3 (reads of this peptide / all reads for the bait, averaged over ….

As for chain 1 R1I, the screen value is 0.00103 average fractional NGS count over selection days 2 and 3 (reads of this peptide / all reads for the bait, averaged over ….

For chain 1 R1Q, the screen value was 7.8e-05 average fractional NGS count over selection days 2 and 3 (reads of this peptide / all reads for the bait, averaged over ….

Regarding chain 1 R1M, the screen value was 0.00223 average fractional NGS count over selection days 2 and 3 (reads of this peptide / all reads for the bait, averaged over ….

For chain 1 R1H, the screen value is 0.0063 average fractional NGS count over selection days 2 and 3 (reads of this peptide / all reads for the bait, averaged over ….

Take chain 1 P4F: the screen value is 9.76e-05 average fractional NGS count over selection days 2 and 3 (reads of this peptide / all reads for the bait, averaged over ….

As for chain 1 P4H, the screen value is 8.18e-05 average fractional NGS count over selection days 2 and 3 (reads of this peptide / all reads for the bait, averaged over ….

Turning to chain 1 P4L, the screen value was 0.000253 average fractional NGS count over selection days 2 and 3 (reads of this peptide / all reads for the bait, averaged over ….

With chain 1 P4T, the screen value was 0.00019 average fractional NGS count over selection days 2 and 3 (reads of this peptide / all reads for the bait, averaged over ….

Regarding chain 1 P4I, the screen value is 0.000839 average fractional NGS count over selection days 2 and 3 (reads of this peptide / all reads for the bait, averaged over ….

For the variant chain 1 P4M, the screen value was 0.000259 average fractional NGS count over selection days 2 and 3 (reads of this peptide / all reads for the bait, averaged over ….

Regarding chain 1 P4Q, the screen value was 0.000154 average fractional NGS count over selection days 2 and 3 (reads of this peptide / all reads for the bait, averaged over ….

For chain 1 P5F, the screen value is 0.00079 average fractional NGS count over selection days 2 and 3 (reads of this peptide / all reads for the bait, averaged over ….

With chain 1 P5A, the screen value was 0.000329 average fractional NGS count over selection days 2 and 3 (reads of this peptide / all reads for the bait, averaged over ….

In the case of chain 1 P5M, the screen value was 0.00164 average fractional NGS count over selection days 2 and 3 (reads of this peptide / all reads for the bait, averaged over ….

Regarding chain 1 P5Q, the screen value was 0.00016 average fractional NGS count over selection days 2 and 3 (reads of this peptide / all reads for the bait, averaged over ….

In the case of chain 1 P5T, the screen value is 0.00773 average fractional NGS count over selection days 2 and 3 (reads of this peptide / all reads for the bait, averaged over ….

For the variant chain 1 P5V, the screen value was 0.0116 average fractional NGS count over selection days 2 and 3 (reads of this peptide / all reads for the bait, averaged over ….

Turning to chain 1 P5H, the screen value was 0.00214 average fractional NGS count over selection days 2 and 3 (reads of this peptide / all reads for the bait, averaged over ….

Consider chain 1 P5N, for which the screen value was 0.00347 average fractional NGS count over selection days 2 and 3 (reads of this peptide / all reads for the bait, averaged over ….

As to chain 1 P5W, the screen value is 0.000217 average fractional NGS count over selection days 2 and 3 (reads of this peptide / all reads for the bait, averaged over ….

With chain 1 P5S, the screen value is 0.00042 average fractional NGS count over selection days 2 and 3 (reads of this peptide / all reads for the bait, averaged over ….

In the case of chain 1 P5G, the screen value was 0.00951 average fractional NGS count over selection days 2 and 3 (reads of this peptide / all reads for the bait, averaged over ….

chain 1 P5I: the screen value was 0.0162 average fractional NGS count over selection days 2 and 3 (reads of this peptide / all reads for the bait, averaged over ….

chain 1 P5Y: the screen value is 0.000822 average fractional NGS count over selection days 2 and 3 (reads of this peptide / all reads for the bait, averaged over ….

As to chain 1 P5L, the screen value is 0.00149 average fractional NGS count over selection days 2 and 3 (reads of this peptide / all reads for the bait, averaged over ….
